Results reported in patent US10799597B2, “Subcutaneous administration of antibody-drug conjugates for cancer therapy” (Immunomedics, Inc., priority 2017, dated 2020).
“And” between values parts separate entries of the source, which are not always exact repeats. Identical values can stand only once.

Tests used:
[1] = test system: advanced GI cancers; assay: Phase I/II trial of IMMU-132 in patients with advanced GI cancers: best response by RECIST and time to progression; assay type: in vivo, human; details: for median TTP: SD patients
Experimental: Patients with metastatic cancers were enrolled after failing standard therapy, starting at a dose of 8.0 mg/kg given on days 1 and 8 of a 3-week cycle. […]

[2] = Phase I/II trial of IMMU-132: MTD and toxicity profile; assay type: in vivo, human; details: 75 patients in the full trial
Experimental: Patients with metastatic cancers were enrolled after failing standard therapy, starting at a dose of 8.0 mg/kg given on days 1 and 8 of a 3-week cycle.

[3] = test system: Capan-1 pancreatic adenocarcinoma xenografts; assay: Therapy of Capan-1 tumor xenografts in nude mice; assay type: in vivo, athymic nude mice; details: 0.2 mg/kg SN-38 twice weekly×4 weeks
Experimental: FIG. 3C. […] Animals were treated twice weekly for 4 weeks as indicated by the arrows. Capan-1 mice (N=10) were treated with 0.2 mg/kg ADC and tumors measured weekly.
FIG. 4C. […] Capan-1 (N=10) were treated twice weekly for 4 weeks with the agents indicated.

[4] = test system: BxPC-3; assay: Signaling events (p21Waf1/Cip1, p53) in BxPC-3 cells; assay type: cell-based, human
From the text: (§1) SN-38 is known to activate several signaling pathways in cells, leading to apoptosis (e.g., Cusack et al., 2001, Cancer Res 61:3535-40; Liu et al. 2009, Cancer Lett 274:47-53; Lagadec et al., 2008, Br J Cancer 98:335-44). Our initial studies examined the expression of 2 proteins involved in early signaling events (p21^Waf1/Cip1 and p53) and 1 late apoptotic event [cleavage of poly-ADP-ribose polymerase (PARP)] in vitro (not shown).

[5] = test system: Calu-3; assay: Signaling events (p21Waf1/Cip1, p53) in Calu-3 cells; assay type: cell-based, human
From the text: as §1

[6] = Tolerability in Swiss-Webster mice; assay type: in vivo
[7] = Tolerability in Cynomolgus monkeys; assay type: in vivo, Cynomolgus monkeys (Macaca fascicularis)
Experimental: FIG. 5C. Tolerability of hRS7-CL2A-SN-38 in Cynomolgus monkeys. […] All animals were bled on day −1, 3, and 6. Four monkeys were bled on day 11 in the 0.96 mg/kg group, 3 in the 1.92 mg/kg group. Changes in neutrophil counts in Cynomolgus monkeys.
FIG. 5D. Tolerability of hRS7-CL2A-SN-38 in Cynomolgus monkeys. […] All animals were bled on day −1, 3, and 6. Four monkeys were bled on day 11 in the 0.96 mg/kg group, 3 in the 1.92 mg/kg group. Changes in platelet counts in Cynomolgus monkeys.

[8] = test system: triple-negative breast cancer; assay: Subcutaneous IMMU-132 in triple-negative breast cancer patients (Example 10); assay type: in vivo, human
Experimental: Maintenance doses of ADC are administered i.v. or s.c. every two to three weeks or monthly after induction. Alternatively, induction may occur with two to four cycles of i.v. administration at 8-10 mg/kg (each cycle with ADC administration on Days 1 and 8 of two 21-day cycles with a one-week rest period in between), followed by s.c. administration as active dosing one or more times weekly or as maintenance therapy. Dosing may be adjusted based on interim tumor scans and/or by analysis of Trop-2 positive circulating tumor cells.

[9] = Tolerability of multiple subcutaneous injections of IMMU-132 in nude mice; assay type: in vivo, female nude mice; details: s.c. 2 mg or 500 μg twice a week for four weeks
Experimental: One group of two mice received 2 mg injections (HED=8 mg/kg) while a second group of two animals, 500 μg (HED=2 mg/kg). For comparison, one mouse received only saline injections. Each injection (100 μL) was administered at the same location (i.e., right rear flank) twice a week for four weeks. Mice were weighed on the day of injection and the injection site examined for any signs of toxicity (i.e, rash, ulceration, etc.). If any occur, it would be documented by photographing the area. One day after the last injection, the mice were anesthetized and the injection site photographed (FIG. 12). This was repeated one week after the final injection (FIG. 13).

[10] = test system: COLO 205 colonic adenocarcinoma xenografts; details: 0.4 mg/kg SN-38 twice weekly×4 weeks
Experimental: Animals were implanted subcutaneously with different human cancer cell lines. Tumor volume (TV) was determined by measurements in 2 dimensions using calipers, with volumes defined as: L×w^2/2, where L is the longest dimension of the tumor and w is the shortest. […] This dosing frequency reflected a consideration of the conjugate's serum half-life in vitro, to allow a more continuous exposure to the ADC.
Growth curves are shown as percent change in initial TV over time. Statistical analysis of tumor growth was based on area under the curve (AUC). Profiles of individual tumor growth were obtained through linear-curve modeling. An f-test was employed to determine equality of variance between groups before statistical analysis of growth curves. A 2-tailed t-test was used to assess statistical significance between the various treatment groups and controls, except for the saline control, where a 1-tailed t-test was used (significance at P≤0.05). Statistical comparisons of AUC were performed only up to the time that the first animal within a group was euthanized due to progression.

[11] = test system: diverse metastatic cancers; assay: Phase I/II clinical trial of IMMU-132 (Example 9): best response and TTP
Experimental: (§2) To optimize cumulative treatment with minimal delays, phase II is focusing on 8 and 10 mg/kg (n=30 and 14, respectively). […] [table]

[12] = Phase I/II clinical trial of IMMU-132 (Example 9): related adverse events
Experimental: as §2

[13] = one gastric cancer patient with SD
[14] = 48 assessable patients (excluding PDC)
[15] = 49 patients reporting related AE
[16] = related AE, N = 47 patients, CTCAE v 4.0

IMMU-132: ADC of the humanized hRS7 anti-Trop-2 antibody conjugated by a pH-sensitive linker (CL2A) to SN-38
PR (partial response) as best response by RECIST, number of patients ([1]; 29 CRC patients (9 at 10 mg/kg, 20 at 8 mg/kg)): 1 | target lesion change of the PR ([1]; CRC patient with PR): −65% | time to progression (TTP) for the PR ([1]; CRC patient with PR): ≥ 50 wks | median TTP ([1]; CRC with KRAS mutations): ≥ 19.1 wks | median TTP for the SD patients ([1]; CRC, 14 SD patients (5 continuing)): ≥ 21 wks | TTP of the PR ([1]; esophageal cancer): ≥ 30 wks | duration of SD in individual patients ([1]; esophageal cancer): ≥ 17.4 wks and 21.9 wks and 26.3 wks and 29.9 wks | ongoing TTP [1, 13]: ≥ 29 wks | target lesion reduction [1, 13]: 19% | median TTP ([1]; pancreatic cancer): 15.0 wks | Grade 3 diarrhea [2]: 6.7% | Grade 3 neutropenia [2]: 17.3% | Grade 4 neutropenia [2]: 2.7% | tumor growth vs. saline and hA20-CL2A-SN-38 [3]: significantly inhibited tumor growth | mice tumor-free at the end of the study ([3]; day 140): 50% | time of p53 upregulation [4]: ≤ 24 h | increase of p21Waf1/Cip1 expression over free SN-38 [5]: more than 2 fold | time of p53 upregulation [5]: ≤ 24 h | chloride levels, range ([6]; 2 highest dosage groups, upper end of normal range 115 mmol/L): 116 to 127 mmol/L | weight loss ([6]; 2 i.p. doses over 3 days of 4, 8, and 12 mg SN-38/kg): minimal transient weight loss | mice with elevated chloride levels ([6]; 2×8 mg/kg group): 57% | mice with slightly elevated glucose levels ([6]; 2×8 mg/kg, of 7 mice): 5 | elevated glucose levels, range ([6]; 2×8 mg/kg, upper end of normal 263 mg/dL): 273 to 320 mg/dL | mice with elevated chloride levels ([6]; 2×12 mg/kg group): 100% | aspartate transaminase (AST) ([6]; seven days after treatment, all 3 treatment groups, normal limit 298 U/L): rose above normal levels | blood count values ([7]; 2×0.96 mg SN-38/kg, transient decreases): did not fall below normal ranges | MTD, human equivalent dose ([7]; cynomolgus monkey, in vivo): 2×0.3 to 0.6 | localized reaction at the administration site ([8]; s.c.): no adverse localized reaction is observed | average decrease in tumor volume ([8]; s.c. 2 to 4 mg/kg schedules, after two cycles of therapy): 35% | skin irritation at the site of multiple injections [9]: no evidence of skin irritation | tumor growth vs. saline and hA20-CL2A-SN-38 [10]: significantly inhibited tumor growth | patients with SD ([11]; 13 CT-assessable PDC patients): 62% | patients with disease response (total) [11, 14]: 79% | patients with partial response (PR) [11, 14]: 15% | median time to progression (TTP) ([11]; PDC patients): 12.7 wks and 11.9 wks | alopecia [12, 15]: 40% | diarrhea [12, 15]: 47% | fatigue [12, 15]: 55% | nausea [12, 15]: 53% | neutropenia G4 [12, 15]: 4% | vomiting [12, 15]: 32% | Abdominal pain, Grade 3, patients (%) [12, 16]: 0 | Abdominal pain, Grade 4, patients (%) [12, 16]: 0 | Anemia, Grade 3, patients (%) [12, 16]: 2 (4%) | Anemia, Grade 4, patients (%) [12, 16]: 0 | Deep vein thrombosis, Grade 3, patients (%) [12, 16]: 1 (2%) | Deep vein thrombosis, Grade 4, patients (%) [12, 16]: 0 | Diarrhea, Grade 3, patients (%) [12, 16]: 4 (9%) | Diarrhea, Grade 4, patients (%) [12, 16]: 0 | Dysgeusia, Grade 3, patients (%) [12, 16]: 0 | Dysgeusia, Grade 4, patients (%) [12, 16]: 0 | Fatigue, Grade 3, patients (%) [12, 16]: 4 (9%) | Fatigue, Grade 4, patients (%) [12, 16]: 0 | Febrile Neutropenia, Grade 3, patients (%) [12, 16]: 1 (2%) | Febrile Neutropenia, Grade 4, patients (%) [12, 16]: 2 (4%) | Hypokalemia, Grade 3, patients (%) [12, 16]: 1 (2%) | Hypokalemia, Grade 4, patients (%) [12, 16]: 0 | Nausea, Grade 3, patients (%) [12, 16]: 0 | Nausea, Grade 4, patients (%) [12, 16]: 0 | Neutropenia, Grade 3, patients (%) [12, 16]: 11 (24%) | Neutropenia, Grade 4, patients (%) [12, 16]: 2 (4%) | Pyrexia, Grade 3, patients (%) [12, 16]: 0 | Pyrexia, Grade 4, patients (%) [12, 16]: 0 | Vomiting, Grade 3, patients (%) [12, 16]: 1 (2%) | Vomiting, Grade 4, patients (%) [12, 16]: 0 | WBC Decrease, Grade 3, patients (%) [12, 16]: 1 (2%) | WBC Decrease, Grade 4, patients (%) [12, 16]: 0
